Reference: US20130065278A1 (SPIBER TECHNOLOGIES, published 2013)

T1: NT-REP4-CT
T1 construct: also called NT4RepCT; NT-REP4-CT fiber
T1 chain: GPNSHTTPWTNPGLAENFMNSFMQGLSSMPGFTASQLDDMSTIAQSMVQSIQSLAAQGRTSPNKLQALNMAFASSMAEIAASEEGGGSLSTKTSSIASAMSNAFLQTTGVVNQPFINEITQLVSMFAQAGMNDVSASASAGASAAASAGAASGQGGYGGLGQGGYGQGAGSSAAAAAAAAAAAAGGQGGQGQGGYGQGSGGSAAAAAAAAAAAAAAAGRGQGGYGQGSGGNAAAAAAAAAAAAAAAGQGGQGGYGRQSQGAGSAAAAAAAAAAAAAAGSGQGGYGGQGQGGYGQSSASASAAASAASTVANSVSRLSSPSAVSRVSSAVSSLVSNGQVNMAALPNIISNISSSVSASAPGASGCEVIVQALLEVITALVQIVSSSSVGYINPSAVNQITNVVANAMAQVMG

T2: NT2-REP4-CT
T2 construct: also called NTNT-REP4-CT; HisNTNT4RepCT
T2 chain: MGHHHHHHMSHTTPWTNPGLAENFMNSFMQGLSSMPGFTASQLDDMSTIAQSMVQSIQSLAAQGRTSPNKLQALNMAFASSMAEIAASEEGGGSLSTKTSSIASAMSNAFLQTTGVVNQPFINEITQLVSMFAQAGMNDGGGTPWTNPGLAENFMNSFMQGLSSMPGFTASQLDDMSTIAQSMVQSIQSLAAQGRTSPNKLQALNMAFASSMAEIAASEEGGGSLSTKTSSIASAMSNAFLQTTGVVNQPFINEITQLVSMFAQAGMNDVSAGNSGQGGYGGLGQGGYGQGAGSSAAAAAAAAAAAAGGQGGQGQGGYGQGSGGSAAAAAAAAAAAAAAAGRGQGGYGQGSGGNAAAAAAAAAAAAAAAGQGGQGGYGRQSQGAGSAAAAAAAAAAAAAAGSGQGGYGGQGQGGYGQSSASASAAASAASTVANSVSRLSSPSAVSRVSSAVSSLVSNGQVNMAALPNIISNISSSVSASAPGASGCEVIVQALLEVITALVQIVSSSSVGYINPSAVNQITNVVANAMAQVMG

B1: NT2-Brichos (other)
chain: MGHHHHHHMSHTTPWTNPGLAENFMNSFMQGLSSMPGFTASQLDDMSTIAQSMVQSIQSLAAQGRTSPNKLQALNMAFASSMAEIAASEEGGGSLSTKTSSIASAMSNAFLQTTGVVNQPFINEITQLVSMFAQAGMNDGGGTPWTNPGLAENFMNSFMQGLSSMPGFTASQLDDMSTIAQSMVQSIQSLAAQGRTSPNKLQALNMAFASSMAEIAASEEGGGSLSTKTSSIASAMSNAFLQTTGVVNQPFINEITQLVSMFAQAGMNDVSAGNSEHLVTTATFSIGSTGLVVYDYQQLLIAYKPAPGTCCYIMKIAPESIPSLEALTRKVHNFQMECSLQAKPAVPTSKLGQAEGRDAGSAPSGGDPAFLGMAVSTLCGEVPLYYI
notes: also called NT-NT-Brichos; HisNTNTBrichos
B2: NTHis (other)
chain: MSHTTPWTNPGLAENFMNSFMQGLSSMPGFTASQLDDMSTIAQSMVQSIQSLAAQGRTSPNKLQALNMAFASSMAEIAASEEGGGSLSTKTSSIASAMSNAFLQTTGVVNQPFINEITQLVSMFAQAGMNDVSASASAGASAAASAGAAALEHHHHHH
notes: also called soluble NTHis; NT protein

How the values were obtained:
[1] = biological target: T1, NT-REP4-CT; assay: capture of soluble protein on fiber at pH 6, release at pH 7, SDS-PAGE; 300 mM NaCl decreased capture
Description: (§1) Fibers (˜0.5 cm long, ˜50 μg) of NT-REP₄-CT (SEQ ID NO 20), NT₂-REP₄-CT (SEQ ID NO 23) and REPO-CT (SEQ ID NO 2, control) were submerged in 100 μl solution of 5 mg/ml soluble NTHis (SEQ ID NO 32) or NT₂-Brichos (SEQ ID NO 34) at pH 8 for 10 minutes. The pH was decreased by addition of 400 μl sodium phosphate buffer (NaP) to pH 6 and incubated for 10 minutes to allow assembly of soluble NT to the fiber. The fibers were transferred to 500 μl of NaP at pH 6, and washed twice. Finally, the fibers were transferred to 500 μl of NaP at pH 7, and incubated 10 minutes to allow release of soluble NT. The same was done in the presence of 300 mM NaCl in all pH 6 NaP buffers. Samples from the different solutions were analysed on SDS-PAGE.

[2] = biological target: T2, NT2-REP4-CT; assay: as above
Description: as §1

Binder	binding result [1]	binding result [2]
B1	binds	binds
B2	binds	binds
